Results from patent publication US20210284734A1.

Biological target: cyno PD1
Assay: flow cytometry, PD-1-transfected CHO-S cells; mAb 10 ug/ml, then R-PE PD-L1-Fc as blocked ligand

Sequence of pembrolizumab analogue (antibody) (VH): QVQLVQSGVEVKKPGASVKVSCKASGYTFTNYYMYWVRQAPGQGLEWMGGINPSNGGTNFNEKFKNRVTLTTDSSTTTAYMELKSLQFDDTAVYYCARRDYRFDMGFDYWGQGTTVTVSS
Sequence of pembrolizumab analogue (antibody) (VL): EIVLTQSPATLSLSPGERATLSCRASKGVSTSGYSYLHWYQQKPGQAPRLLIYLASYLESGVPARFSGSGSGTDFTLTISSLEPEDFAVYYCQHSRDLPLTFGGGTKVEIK
Sequence of cyno PD1 (receptor, as listed by the source limits assumed): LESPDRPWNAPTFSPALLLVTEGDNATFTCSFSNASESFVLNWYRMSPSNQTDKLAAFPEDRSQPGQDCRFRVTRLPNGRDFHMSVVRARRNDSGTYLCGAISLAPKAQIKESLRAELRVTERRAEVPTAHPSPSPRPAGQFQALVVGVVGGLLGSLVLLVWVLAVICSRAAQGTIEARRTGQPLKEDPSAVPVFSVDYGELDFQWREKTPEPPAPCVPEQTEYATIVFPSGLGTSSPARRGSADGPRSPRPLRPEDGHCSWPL

% of all cells in Q2 of panel PD-L1 binding (PD-L1+, CFSE+ cyno PD1 cells): 0.38%
% of all cells in Q3 of panel PD-L1 binding (PD-L1-, CFSE+ cyno PD1 cells): 52.5%
% of cyno PD1-gated cells in Q1 (mAb+, PD-L1-): 44.7%
% of cyno PD1-gated cells in Q2 (mAb+, PD-L1+): 3.84%
% of cyno PD1-gated cells in Q3 (mAb-, PD-L1+): 0.92%
% of cyno PD1-gated cells in Q4 (mAb-, PD-L1-): 50.6%
Substance: pembrolizumab analogue (antibody)
